pKd: −log10 of the molar value.
Tests used:
[1] = target: T1, pyruvate dehydrogenase kinase (PDK) 1 (Homo sapiens, UniProt Q15118); assay: isothermal titration calorimetry (ITC); format: binding
T1 construct: gene PDK1

[2] = target: Pyruvate dehydrogenase kinase 1 (PDK1) protein (UniProt Q15118); assay: ITC; PDK1 protein with the lipoamide-binding domains of PDH-E2 (L1, L2), in the presence of hemistepsin A (HsA); conditions not told in the main text
[3] = target: Pyruvate dehydrogenase kinase 1 (PDK1) protein (UniProt Q15118); assay: ITC; PDK1 protein with the lipoamide-binding domains of PDH-E2 (L1, L2), without HsA; conditions not told in the main text

Sequence of Pyruvate dehydrogenase kinase 1 (PDK1) protein (Q15118 29-436): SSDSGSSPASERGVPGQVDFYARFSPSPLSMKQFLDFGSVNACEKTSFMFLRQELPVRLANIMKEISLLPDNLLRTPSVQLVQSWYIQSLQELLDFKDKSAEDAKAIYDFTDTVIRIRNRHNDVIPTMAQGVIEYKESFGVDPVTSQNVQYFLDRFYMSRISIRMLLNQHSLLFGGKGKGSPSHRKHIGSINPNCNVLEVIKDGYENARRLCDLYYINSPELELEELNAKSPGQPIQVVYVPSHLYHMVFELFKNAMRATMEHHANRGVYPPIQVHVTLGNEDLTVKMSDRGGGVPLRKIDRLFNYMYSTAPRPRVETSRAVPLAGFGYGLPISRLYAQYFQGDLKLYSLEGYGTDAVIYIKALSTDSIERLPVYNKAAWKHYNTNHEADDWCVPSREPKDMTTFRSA
T1 sequence (Q15118 29-436): as above

Compound | pKd [1] | pKd [2] | pKd [3]
C=C(CO)C(=O)OC1C2C(=C)C(=O)OC2CC(=C)C2CC(O)C(=C)C21 (centres unmarked) [HsA, Hemistepsin A] | 4.66 |  | 
L1 lipoamide-binding domain of the PDH complex E2 subunit (PDH-E2) (domain or fragment) |  | 4.37 | 4.39
L2 lipoamide-binding domain of the PDH complex E2 subunit (PDH-E2) (domain or fragment) |  | 4.39 | 4.52

Source: paper PMC7736850, “Hemistepsin A suppresses colorectal cancer growth through inhibiting pyruvate dehydrogenase kinase activity” (Scientific Reports, 2020)
